Data as given in patent US20210300999A1 (published 2021).

Biological target: SARS-CoV-2 prefusion-stabilized trimeric spike ectodomain (S2Pecto) (SARS-CoV-2;, UniProt P0DTC2 14-1213; P10104 458-484)
Assay: ELISA

B1: COV2-2196 (antibody, V domains shown)
VH: QMQLVQSGPEVKKPGTSVKVSCKASGFTFMSSAVQWVRQARGQRLEWIGWIVIGSGNTNYAQKFQERVTITRDMSTSTAYMELSSLRSEDTAVYYCAAPYCSSISCNDGFDIWGQGTMVTVSS
VL: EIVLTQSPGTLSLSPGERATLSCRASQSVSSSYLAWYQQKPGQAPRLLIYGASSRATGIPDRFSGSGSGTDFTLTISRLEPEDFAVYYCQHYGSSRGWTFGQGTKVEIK
  IC50: 0.058 µg/mL
